{
  "source": "patent US20260055369A1",
  "about": "(H LEE MOFFITT CANCER CENTER AND RESEARCH INSTITUTE, published 2026)",
  "binders": {"B1": {"name": "Delta^MAX (N-EGF5), non-biotinylated (ligand)", "chain": "SSVFQLQLQEFINERGVLASGRPCEPGCRTFFRVCLKHFQAVVSPGPCTFGTVSTPVLGTNSFAVRDDSSGGGRNPLQLPLNFTWPGTFSLIIEAWHAPGDDLRPEALPPDALISKFAIQGSLAVGQNWLLDEQTSTLTRLRYSYRVICSDNYYGDNCSRLCKKRNDYFGHYVCQPDGNPSCLPGWTGEYCQQPICLSGCHEQNGYCSKPAECLCRPGWQGRLCNECIPHPGCRHGTCSTPWQCLCDEGWGGLYCDQDLNYCTHHSPCKNGATCRNSGPRSYTCTCRPGYTGVDCELELSECDSNPCRNGGSCKDQEDGYHCLCPPGYYGLHCEHSTLSCADSPCFNGGSCRERNQGANYACECPPNFTGSNCEHHHHHHHH", "notes": "also called DLL4^MAX; soluble Delta^MAX"}},
  "molecular_target": "Notch1 on U2OS hNotch1-Gal4 luciferase reporter cells (human, UniProt P46531 19-2555)",
  "sequence (P46531 19-2555)": "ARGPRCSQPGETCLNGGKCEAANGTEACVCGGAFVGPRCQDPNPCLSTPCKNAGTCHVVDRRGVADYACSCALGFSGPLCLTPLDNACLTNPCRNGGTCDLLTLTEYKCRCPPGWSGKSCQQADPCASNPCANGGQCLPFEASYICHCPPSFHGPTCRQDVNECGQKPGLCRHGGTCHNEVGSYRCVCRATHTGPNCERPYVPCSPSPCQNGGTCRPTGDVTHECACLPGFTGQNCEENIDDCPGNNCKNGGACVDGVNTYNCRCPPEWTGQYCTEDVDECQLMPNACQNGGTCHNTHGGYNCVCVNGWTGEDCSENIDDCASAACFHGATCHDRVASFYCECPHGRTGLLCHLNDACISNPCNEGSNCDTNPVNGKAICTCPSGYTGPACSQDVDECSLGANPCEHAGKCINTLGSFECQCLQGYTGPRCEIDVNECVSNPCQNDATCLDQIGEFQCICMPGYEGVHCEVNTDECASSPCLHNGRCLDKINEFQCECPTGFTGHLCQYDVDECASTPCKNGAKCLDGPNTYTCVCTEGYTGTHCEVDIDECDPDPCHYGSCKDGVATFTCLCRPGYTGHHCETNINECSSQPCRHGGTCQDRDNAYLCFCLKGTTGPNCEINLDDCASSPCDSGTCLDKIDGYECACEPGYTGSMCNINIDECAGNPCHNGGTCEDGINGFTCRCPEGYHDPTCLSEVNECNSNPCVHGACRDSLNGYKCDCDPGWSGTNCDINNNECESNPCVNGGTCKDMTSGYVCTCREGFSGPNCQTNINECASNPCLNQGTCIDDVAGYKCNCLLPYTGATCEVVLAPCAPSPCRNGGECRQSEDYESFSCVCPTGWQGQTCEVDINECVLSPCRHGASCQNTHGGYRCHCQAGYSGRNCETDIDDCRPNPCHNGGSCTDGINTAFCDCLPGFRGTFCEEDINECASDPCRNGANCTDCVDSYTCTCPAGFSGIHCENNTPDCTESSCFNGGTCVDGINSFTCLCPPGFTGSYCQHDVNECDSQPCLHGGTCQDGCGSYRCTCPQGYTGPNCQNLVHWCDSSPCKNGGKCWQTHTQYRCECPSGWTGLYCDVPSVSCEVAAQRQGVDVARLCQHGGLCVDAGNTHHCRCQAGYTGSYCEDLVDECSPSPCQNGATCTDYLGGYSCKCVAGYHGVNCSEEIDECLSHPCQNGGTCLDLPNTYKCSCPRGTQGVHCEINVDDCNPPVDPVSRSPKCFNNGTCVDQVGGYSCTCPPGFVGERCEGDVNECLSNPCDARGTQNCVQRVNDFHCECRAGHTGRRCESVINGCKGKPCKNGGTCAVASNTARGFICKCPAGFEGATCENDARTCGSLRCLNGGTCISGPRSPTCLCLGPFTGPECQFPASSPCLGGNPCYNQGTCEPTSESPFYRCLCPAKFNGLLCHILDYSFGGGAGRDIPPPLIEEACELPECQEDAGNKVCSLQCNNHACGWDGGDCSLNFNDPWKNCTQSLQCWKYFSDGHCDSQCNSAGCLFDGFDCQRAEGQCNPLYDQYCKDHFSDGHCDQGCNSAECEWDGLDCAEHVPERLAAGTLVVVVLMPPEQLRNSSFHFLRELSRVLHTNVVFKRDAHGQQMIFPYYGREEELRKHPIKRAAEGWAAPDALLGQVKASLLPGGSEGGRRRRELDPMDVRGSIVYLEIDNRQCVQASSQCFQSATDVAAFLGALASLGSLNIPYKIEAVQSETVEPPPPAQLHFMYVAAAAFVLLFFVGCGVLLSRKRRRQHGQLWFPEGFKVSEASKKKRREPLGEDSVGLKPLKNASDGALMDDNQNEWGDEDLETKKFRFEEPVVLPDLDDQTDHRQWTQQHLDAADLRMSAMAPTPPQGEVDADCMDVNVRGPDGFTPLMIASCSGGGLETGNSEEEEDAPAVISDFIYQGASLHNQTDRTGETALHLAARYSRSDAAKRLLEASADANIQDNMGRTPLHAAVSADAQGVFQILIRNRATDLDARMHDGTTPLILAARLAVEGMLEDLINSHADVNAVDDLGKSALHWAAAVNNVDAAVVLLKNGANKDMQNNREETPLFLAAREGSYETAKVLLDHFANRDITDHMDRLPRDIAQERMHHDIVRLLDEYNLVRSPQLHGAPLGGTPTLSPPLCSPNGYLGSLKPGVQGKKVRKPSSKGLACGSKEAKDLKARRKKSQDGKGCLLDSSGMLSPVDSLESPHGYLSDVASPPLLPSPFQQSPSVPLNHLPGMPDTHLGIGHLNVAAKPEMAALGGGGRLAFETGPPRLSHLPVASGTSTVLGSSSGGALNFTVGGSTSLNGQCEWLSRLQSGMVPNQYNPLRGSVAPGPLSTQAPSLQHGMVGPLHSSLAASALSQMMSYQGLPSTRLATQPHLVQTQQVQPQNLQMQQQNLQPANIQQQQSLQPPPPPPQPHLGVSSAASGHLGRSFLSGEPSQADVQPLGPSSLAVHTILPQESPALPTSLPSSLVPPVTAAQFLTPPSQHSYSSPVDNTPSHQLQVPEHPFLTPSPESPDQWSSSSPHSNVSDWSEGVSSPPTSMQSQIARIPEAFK",
  "assay": "cell-based or functional assay",
  "data": [
    {"binder": "B1", "values": [
      {"measurement": "increase in Notch1 activation relative to control, non-specific adsorption", "result": 23, "unit": "fold"}
    ]}
  ]
}
